# US20220048996A1 (F STAR BETA, published 2022)
# T1: human OX40 expressed on DO11.10 cells (DO11.10-hOX40) (human, UniProt P43489 29-277)
# T1 sequence: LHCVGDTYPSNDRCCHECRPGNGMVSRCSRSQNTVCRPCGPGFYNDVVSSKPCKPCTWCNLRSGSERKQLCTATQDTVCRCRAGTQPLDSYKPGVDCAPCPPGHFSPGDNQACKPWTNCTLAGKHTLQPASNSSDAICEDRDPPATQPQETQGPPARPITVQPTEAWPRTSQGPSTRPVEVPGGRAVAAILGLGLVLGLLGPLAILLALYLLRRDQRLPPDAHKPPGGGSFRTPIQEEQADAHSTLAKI
# T2: hOX40-mFc (human)
# T2 construct: Dimeric; also called human OX40-mFc
# T2 chain: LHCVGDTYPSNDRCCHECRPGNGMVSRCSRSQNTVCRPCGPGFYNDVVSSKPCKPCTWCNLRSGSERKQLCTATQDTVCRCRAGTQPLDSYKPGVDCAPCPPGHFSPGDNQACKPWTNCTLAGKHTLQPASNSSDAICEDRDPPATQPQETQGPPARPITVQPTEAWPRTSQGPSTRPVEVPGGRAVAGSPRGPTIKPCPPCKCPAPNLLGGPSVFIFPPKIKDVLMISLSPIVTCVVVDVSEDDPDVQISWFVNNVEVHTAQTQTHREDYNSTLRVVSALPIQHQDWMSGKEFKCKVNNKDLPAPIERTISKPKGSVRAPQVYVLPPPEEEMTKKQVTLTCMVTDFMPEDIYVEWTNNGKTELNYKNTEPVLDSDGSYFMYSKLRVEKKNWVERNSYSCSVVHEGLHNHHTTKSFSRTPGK
# T3: mouse OX40 expressed on DO11.10 cells (DO11.10-mOX40) (mouse, UniProt P47741 20-272)
# T3 sequence: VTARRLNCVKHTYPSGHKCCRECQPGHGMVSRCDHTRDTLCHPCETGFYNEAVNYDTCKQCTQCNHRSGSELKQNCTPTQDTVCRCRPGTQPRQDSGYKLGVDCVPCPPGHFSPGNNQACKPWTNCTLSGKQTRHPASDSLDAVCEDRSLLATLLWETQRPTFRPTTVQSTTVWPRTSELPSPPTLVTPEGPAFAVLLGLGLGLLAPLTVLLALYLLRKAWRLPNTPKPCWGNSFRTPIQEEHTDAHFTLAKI
# T4: cynomolgus CD137 expressed on DO11.10 cells (DO11.10-cCD137) (cynomolgus monkey, UniProt Q07011 24-255 (human entry))
# T4 chain: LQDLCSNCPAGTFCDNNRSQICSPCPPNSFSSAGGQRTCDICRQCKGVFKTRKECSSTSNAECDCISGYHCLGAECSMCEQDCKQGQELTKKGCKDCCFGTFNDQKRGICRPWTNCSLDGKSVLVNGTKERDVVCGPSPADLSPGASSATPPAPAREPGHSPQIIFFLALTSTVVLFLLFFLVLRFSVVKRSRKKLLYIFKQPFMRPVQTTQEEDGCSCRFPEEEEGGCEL
# Tests used:
# hCD137-mFc-Avi [1] = target: T5, hCD137-mFc-Avi (human); assay: SPR, mAb^2 at 1 nM on CD137 against 1 µM on related receptors
# T5 construct: Dimer; a biotinylated version was used where the text says so; also called human CD137-mFc-Avi; hCD137-mFc-Avi-Bio
# From the text: CD137 and OX40 belongs to the tumour necrosis factor receptor superfamily (TNFRSF) of cytokine receptors (Moran et al., 2013).
# Briefly, flow cells on CM5 chips were immobilised with approx. 1000 RU of either human CD137-mFc-Avi (Table 3), OX40-mFc (Table 2), recombinant human TNFRSF1A-Fc, recombinant human TNFRSF1B-Fc, recombinant human GITR-Fc, recombinant human NGFR-Fc, recombinant human CD40-Fc or recombinant human DR6-Fc. Flow cell 1 was left for blank immobilisation. The five mAb² were diluted to 1 μM and 1 nM in 1×HBS-EP buffer (GE Healthcare, product code BR100188), allowed to flow over the chip for 3 min and then allowed to dissociate for 4 minutes. A 30-second injection of 10 mM glycine pH 1.5 was used for regeneration. […] Binding levels were determined at the end of the association phase and compared.
# [2] = target: T6, human CD137 expressed on DO11.10 cells (DO11.10-hCD137) (human, UniProt Q07011 24-255); assay: cell-based or functional assay
# Target sequence in this assay (Q07011 24-255): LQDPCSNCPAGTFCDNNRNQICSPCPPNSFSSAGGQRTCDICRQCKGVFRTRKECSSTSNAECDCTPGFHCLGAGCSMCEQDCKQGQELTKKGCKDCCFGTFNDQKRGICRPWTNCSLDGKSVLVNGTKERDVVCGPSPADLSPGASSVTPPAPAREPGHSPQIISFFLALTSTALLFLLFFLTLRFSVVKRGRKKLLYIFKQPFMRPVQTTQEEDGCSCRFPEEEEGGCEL
# [3] = target: T1, human OX40 expressed on DO11.10 cells …; assay: cell-based or functional assay
# hCD137-mFc-Avi [4] = target: T5, hCD137-mFc-Avi; assay: SPR, antigen immobilised on CM5, mAb^2 at 1 nM and 1 µM
# hOX40-mFc = target: T2, hOX40-mFc; assay: as above
# [5] = target: T3, mouse OX40 expressed on DO11.10 cells …; assay: cell-based or functional assay
# [6] = target: T7, mouse CD137 expressed on DO11.10 cells (DO11.10-mCD137) (mouse, UniProt P20334 24-256); assay: flow cytometry on DO11.10 cells expressing the target
# T7 construct: also called CD137 on mouse T cells
# Method: (§1) The binding affinity of the FS20m-232-91AA/Lob12.3 mAb² for cell-expressed mouse OX40 and CD137 was determined using flow cytometry. […] DO11.10-mOX40, DO11.10-mCD137, or HEK cell suspensions were prepared in PBS+2% BSA (Sigma, A7906) and seeded at 4×10⁶ cell/ml with 50 μl/well in V-bottomed 96-well plates (Costar, 3897). 50 μl of the antibody dilutions were added to the wells containing cells (final volume 100 μl ) and incubated at 4° C. for 1 hour. […] The plates were washed and resuspended in 100 μl of PBS containing DAPI (Biotium, cat no 40043) at 1 μg/ml. The plates were analysed using a Canto II flow cytometer (BD Bioscience) and the data analysed using FlowJo. Dead cells were identified by their higher fluorescence on the UV (405 nm/450/50) channel and excluded from analysis. […] The GMFI data was fit using log (agonist) vs response (three parameters) in GraphPad Prism Software to generate EC₅₀ values.
# [7] = target: T3, mouse OX40 expressed on DO11.10 cells …; assay: as above
# Method: as §1
# [8] = target: T3, mouse OX40 expressed on DO11.10 cells …; assay: flow cytometry, fluorescently-labelled antibody on DO11.10-mOX40
# [9] = target: T4, cynomolgus CD137 expressed on DO11.10 …; assay: flow cytometry on DO11.10 cells expressing the target
# Method: (§2) 50 μl of the antibody dilutions were added to the wells containing cells (final volume 100 μl) and incubated at 4° C. for 1 hour. […] The plates were washed and resuspended in 100 μl of PBS containing DAPI (Biotium, cat no 40043) at 1 μg/ml. The plates were analysed using a Canto II flow cytometer (BD Bioscience) and the data analysed using FlowJo. Dead cells were identified by their higher fluorescence on the UV (405 nm/450/50) channel and excluded from analysis. […] The GMFI data was fit using log (agonist) vs response (three parameters) in Graph Pad Prism Software to generate EC₅₀ values.
# [10] = target: T6, human CD137 expressed on DO11.10 cells …; assay: as above
# Method: as §2
# T5 sequence (chain, as listed by the source limits assumed): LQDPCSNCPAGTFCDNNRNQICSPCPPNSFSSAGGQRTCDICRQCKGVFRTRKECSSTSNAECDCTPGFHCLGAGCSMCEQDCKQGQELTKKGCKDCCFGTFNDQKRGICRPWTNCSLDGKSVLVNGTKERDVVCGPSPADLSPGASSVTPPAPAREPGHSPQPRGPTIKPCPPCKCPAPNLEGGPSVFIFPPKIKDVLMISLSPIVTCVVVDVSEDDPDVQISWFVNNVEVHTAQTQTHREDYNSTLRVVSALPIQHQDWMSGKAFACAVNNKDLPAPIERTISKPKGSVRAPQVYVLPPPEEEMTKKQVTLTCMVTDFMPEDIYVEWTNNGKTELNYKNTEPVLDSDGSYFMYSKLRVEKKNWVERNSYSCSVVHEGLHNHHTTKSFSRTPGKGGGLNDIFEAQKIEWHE
# T7 sequence (P20334 24-256): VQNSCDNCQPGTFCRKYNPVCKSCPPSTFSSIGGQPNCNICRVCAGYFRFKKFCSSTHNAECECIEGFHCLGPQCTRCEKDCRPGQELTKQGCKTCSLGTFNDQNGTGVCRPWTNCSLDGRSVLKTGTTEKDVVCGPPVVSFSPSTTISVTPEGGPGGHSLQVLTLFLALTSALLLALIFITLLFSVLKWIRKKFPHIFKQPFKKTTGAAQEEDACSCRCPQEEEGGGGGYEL
binder,measurement,setting,value
"FS20-22-49AA/FS30-35 (bispecific antibody, V domains shown, Parent mAb^2; derived by reversing the stated change) VH: EVQLLESGGGLVQPGGSLRLSCAASGFTFSAYNIHWVRQAPGKGLEWVSDISPYGGATNYADSVKGRFTISRDNSKNTLYLQMNSLRAEDTAVYYCARNLYELSAYSYGMDYWGQGTLVTVSS VL: EIVLTQSPGTLSLSPGERATLSCRASQSVSSSYLAWYQQKPGQAPRLLIYGASSRATGIPDRFSGSGSGTDFTLTISRLEPEDFAVYYCQQYYYSSPITFGQGTKVEIKR","specificity for CD137 over TNFRSF1A, TNFRSF1B, GITR, NGFR and CD40 (fold)",hCD137-mFc-Avi [1],~1000 fold
"FS20-22-49AA/FS30-35-14 (bispecific antibody, human IgG1, kappa, L234A L235A, V domains shown, IgG1 with LALA; also called OX40/CD137 mAb^2) VH: EVQLLESGGGLVQPGGSLRLSCAASGFTFSAYNIHWVRQAPGKGLEWVSDISPYGGATNYADSVKGRFTISRDNSKNTLYLQMNSLRAEDTAVYYCARNLYELSAYSYGADYWGQGTLVTVSS VL: EIVLTQSPGTLSLSPGERATLSCRASQSVSSSYLAWYQQKPGQAPRLLIYGASSRATGIPDRFSGSGSGTDFTLTISRLEPEDFAVYYCQQYYYSSPITFGQGTKVEIKR","EC50 of mIL-2 release, DO11.10-hCD137 assay, crosslinked",[2],5.1 nM
same,"Emax of mIL-2 release, DO11.10-hCD137 assay, crosslinked",[2],19800 pg/mL
same,"SEA assay (PBMC), hIL-2 max response, crosslinked",[3],32200 pg/mL
same,"SEA assay (PBMC), hIL-2 max response, no crosslinker",[3],32400 pg/mL
same,"SEA assay (PBMC), hIL-2 release EC50, crosslinked",[3],0.14 nM
same,"SEA assay (PBMC), hIL-2 release EC50, no crosslinker",[3],0.09 nM
same,binding result,hCD137-mFc-Avi [4],binds
same,binding result,hOX40-mFc,binds
"G1AA/OX86 (antibody, human IgG1, kappa, L234A L235A, V domains shown) VH: QVQLKESGPGLVQPSQTLSLTCTVSGFSLTGYNLHWVRQPPGKGLEWMGRMRYDGDTYYNSVLKSRLSISRDTSKNQVFLKMNSLQTDDTAIYYCTRDGRGDSFDYWGQGVMVTVSS VL: DIVMTQGALPNPVPSGESASITCRSSQSLVYKDGQTYLNWFLQRPGQSPQLLTYWMSTRASGVSDRFSGSGSGTYFTLKISRVRAEDAGVYYCQQVREYPFTFGSGTKLEIKR","mouse pan-T cell activation assay, mIL-2 release EC50, crosslinked",[5],2.41 nM
"FS20m-232-91AA/4420 (antibody, human IgG1, kappa, L234A L235A) heavy: EVKLDETGGGLVQPGRPMKLSCVASGFTFSDYWMNWVRQSPEKGLEWVAQIRNKPYNYETYYSDSVKGRFTISRDDSKSSVYLQMNNLRVEDMGIYYCTGSYYGMDYWGQGTSVTVSSASTKGPSVFPLAPSSKSTSGGTAALGCLVKDYFPEPVTVSWNSGALTSGVHTFPAVLQSSGLYSLSSVVTVPSSSLGTQTYICNVNHKPSNTKVDKKVEPKSCDKTHTCPPCPAPEAAGGPSVFLFPPKPKDTLMISRTPEVTCVVVDVSHEDPEVKFNWYVDGVEVHNAKTKPREEQYNSTYRVVSVLTVLHQDWLNGKEYKCKVSNKALPAPIEKTISKAKGQPREPQVYTLPPSRDELFDPMYYYNQVSLTCLVKGFYPSDIAVEWESNGEPLWDYKTTPPVLDSDGSFFLYSKLTVWRDRWEDGNVFSCSVMHEALHNHYTQKSLSLSPGK light: DVVMTQTPLSLPVSLGDQASISCRSSQSLVHSNGNTYLRWYLQKPGQSPKVLIYKVSNRFSGVPDRFSGSGSGTDFTLKISRVEAEDLGVYFCSQSTHVPWTFGGGTKLEIKRTVAAPSVFIFPPSDEQLKSGTASVVCLLNNFYPREAKVQWKVDNALQSGNSQESVTEQDSKDSTYSLSSTLTLSKADYEKHKVYACEVTHQGLSSPVTKSFNRGEC","mouse pan-T cell activation assay, mIL-2 release EC50, crosslinked",[5],0.257 nM
"G1/OX86 (antibody, human IgG1, kappa, V domains shown, also called G1/0X86; anti-mouse OX40 mAb OX86 in a human IgG1 backbone) VH: QVQLKESGPGLVQPSQTLSLTCTVSGFSLTGYNLHWVRQPPGKGLEWMGRMRYDGDIYYNSVLKSRLSISRDTSKNQVFLKMNSLQTDDTAIYYCTRDGRGDSFDYWGQGVMVTVSS VL: DIVMTQGALPNPVPSGESASITCRSSQSLVYKDGQTYLNWFLQRPGQSPQLLTYWMSTRASGVSDRFSGSGSGTYFTLKISRVRAEDAGVYYCQQVREYPFTFGSGTKLEIKR",binding result,[6],no binding
same,EC50,[7],0.538 nM
"antibody OX86 (Biolegend cat no 119408) (antibody, V domains shown) VH: QVQLKESGPGLVQPSQTLSLTCTVSGFSLTGYNLHWVRQPPGKGLEWMGRMRYDGDTYYNSVLKSRLSISRDTSKNQVFLKMNSLQTDDTAIYYCTRDGRGDSFDYWGQGVMVTVSS VL: DIVMTQGALPNPVPSGESASITCRSSQSLVYKDGQTYLNWFLQRPGQSPQLLTYWMSTRASGVSDRFSGSGSGTYFTLKISRVRAEDAGVYYCQQVREYPFTFGSGTKLEIK",fluorescence over non-transduced cells (fold),[8],≥ 10 fold
"FS20-22-49AA/FS30-10 (bispecific antibody, V domains shown, Parent mAb^2; derived by reversing the stated change) VH: EVQLLESGGGLVQPGGSLRLSCAASGFTFSSYDMSWVRQAPGKGLEWVSDIDPTGSKTDYADSVKGRFTISRDNSKNTLYLQMNSLRAEDTAVYYCARDLMVYGFDYWGQGTLVTVSS VL: EIVLTQSPGTLSLSPGERATLSCRASQSVSSSYLAWYQQKPGQAPRLLIYGASSRATGIPDRFSGSGSGTDFTLTISRLEPEDFAVYYCQQSYSYPVTFGQGTKVEIKR","specificity for CD137 over TNFRSF1A, TNFRSF1B, GITR, NGFR and CD40 (fold)",hCD137-mFc-Avi [1],~1000 fold
"G1/4420 (antibody, human IgG1, kappa, also called anti-FITC antibody 4420 in IgG1 format; isotype control) heavy: not shown light: DVVMTQTPLSLPVSLGDQASISCRSSQSLVHSNGNTYLRWYLQKPGQSPKVLIYKVSNRFSGVPDRFSGSGSGTDFTLKISRVEAEDLGVYFCSQSTHVPWTFGGGTKLEIKRTVAAPSVFIFPPSDEQLKSGTASVVCLLNNFYPREAKVQWKVDNALQSGNSQESVTEQDSKDSTYSLSSTLTLSKADYEKHKVYACEVTHQGLSSPVTKSFNRGEC",binding result,[9],no binding
same,binding result,[10],no binding
same,binding result,[6],no binding
same,binding result,[7],no binding
